# Measured values from patent US6191256A, “Recombinant factor VIII binding peptides” (Bayer Corporation, priority 1998, dated 2001).
# Assays:
# [1] = target: T1, rFVIII (Homo sapiens, UniProt P00451); assay: confirmatory binding assay in filtration plate format using 14C-rFVIII; settings: for 0.5M CaCl2 % total / 2% acetic acid % total / 2% acetic acid dpm / 0.5M CaCl2 dpm: 5 mg beads; for 0.5M CaCl2 dpm: 5° C.; for beads % total / beads dpm: remaining on beads after washes
# Procedure: Confirmatory binding assays were performed in a filtration plate format using individual peptide sequences synthesized directly onto the TOYOPEARL AF amino 650 M resin, at a final substitution density of 0.1 mmole/g resin. A slurry of each individual peptide sequence was prepared using deionized water. A 100 μL volume of beads (corresponding to 5 mg) was loaded into each well of the filtration plate (MULTISCREEN Assay System, Millipore, Bedford, Mass.), in triplicate for each peptide sequence. Beads were washed with 20% ethanol and incubated overnight with equilibration buffer (20 mM imidazole, 10 mM
# CaCl2, 0.105 M NaCl, pH 6.9). A 100 μL aliquot of ^14 C-rFVIII diluted in neat PPF to a final concentration of 20-30 nM was loaded into each well and incubated for 1 hour at 5° C. Filtrate (unbound ^14 C-rFVIII) was collected into a microtiter plate and transferred to liquid scintillation vials for dpm counting. Beads were washed sequentially with: 100 μL of equilibration buffer for 15 minutes, 200 μL of 0.5 M CaCl2 (in equilibration buffer), 200 μL of 1.0 M CaCl2 (in equilibration buffer), and 200 uL of 2% by volume glacial acetic acid in water, for 1 hour each at 5° C. Scintillation counting on the unbound ^14 C-rFVIII (plus equilibration buffer wash), salt and acid washes, as well as on the beads was then performed and the overall mass balance calculated.
# Beads presenting the appropriate peptide sequence on the surface were placed in the filtration plate wells and incubated sequentially with equilibration buffer, ^14 C-rFVIII in PPF, equilibration buffer, 0.5 M CaCl2 wash, 1.0 M CaCl2 wash and 2% acetic acid wash. After each incubation, filtrate was collected in microtiter plates, and dpm counted on each
# In Table 3, the ^14 C-rFVIII was loaded at 20 nM (in PPF) and the radiolabeling yield was at 3.0×10^15 dpm/mole. In Table 4, the ^14 C-rFVIII was loaded at 30 nM (in PPF) and the radiolabeling yield was at 5.0×10^15 dpm/mole.
# [2] = target: T1, rFVIII; assay: column format binding assay, rFVIII mass per fraction by sandwich capture ELISA for the light chain; settings: for Flow through ng: 10,000 ng rFVIII in 1:10 PPF injected, 5° C.; for ELISA results % total: Table 9, 0.5M CaCl2 fraction
# Procedure: (§1) Immunoassay on rFVIII using a sandwich capture ELISA for the light chain and activity assay using a chromogenic substrate (COATEST Factor VIII kit from diaPharma, Franklin, Ohio) were performed on a BIOMEK® automated liquid handling system from Beckman Instruments (Brea, Calif.). The monoclonal antibody for rFVIII light chain (known as C7F7), the ELISA assay standard (lot A70K019), and the control for the activity assay (lot A70A001 @ 140 IU/mL) were from the Bayer Corporation (Berkeley, Calif.). The standard for the activity assay was at 11.2 IU/mL (Bayer, Clayton, N.C.), calibrated against the MEGA 1 standard, which is a working standard used by American manufacturers for measuring factor VIII activity (21).
# (§2) Additional confirmatory binding assay and performance of the discovered binding peptides in terms of total rFVIII and activity recovery was performed in a column chromatographic format on a microbore HPLC. The resins were packed into 0.4×5 cm columns (Thomson, Springfield, Va.) and tested on the MICHROM HPLC system (Michrom BioResources, Auburn, Calif.). The elution program for the trials utilized the following method. The column was pre-equilibrated with equilibration buffer (as above). A 1 mL aliquot of 1:10 PPF followed by 1 mL of rFVIII (10,000 ng) in 1:10 PPF were injected and allowed sufficient time to flow through the column using equilibration buffer. The column was then washed with step elutions of 0.5 M and 1.0 M CaCl2 in equilibration buffer. The column was exposed to equilibration buffer. Remaining protein was eluted with 2% by volume glacial acetic acid in water. Columns were kept at 5° C. during the chromatographic runs. For each 1 mL injection (equilibration buffer, 1:10 PPF and 10,000 ng rFVIII in 1:10 PPF), the chromatographic cycle was run for 45 minutes (injection, flow through, 0.5 M CaCl2, 1.0 M CaCl2, equilibration buffer, 2% acetic acid, equilibration buffer).
# (§3) A Gilson FC204 fraction collector at the HPLC outlet collected individual eluates for further analysis. Each collection tube had 100 μL hSA added to it to stabilize the rFVIII. Fractions collected from the 2% acetic acid eluates were neutralized with 2 M Tris, pH 10.5 to bring the pH to neutrality. The fractions were analyzed for total protein by the integration of the absorbance at 280 nm, for rFVIII by immunoassay (sandwich capture ELISA), and for rFVIII activity by a chromogenic substrate assay.
# Tables 5 and 6 present the results from the additional confirmatory binding assays using the column format. The chromatography method was run by injecting the samples at a flow rate of 865 μL/min (413 cm/hr). In order to provide a 10 minute residence time of sample in the column the flow was decreased to 17 μL/min (10 cm/hr) upon injection.
# Following the incubation, the flow was set at 865 μL/min (413 cm/hr) for the step clutions of 0.5 M CaCl2, 1.0 M CaCl2, and 2% acetic acid. Results are expressed in terms of the total mass of rFVIII in each fraction, as determined by the sandwich capture ELISA assay for the rFVIII light chain. […] A control using a non-binding peptide sequence (IGF) is also shown for comparison--in this case, 95% of the rFVIII loaded to the column was collected in the flow through fraction. Additional controls with no
# [3] = target: T1, rFVIII; assay: rFVIII activity recovery from peptide columns by chromogenic substrate assay (COATEST); type: biochemical; settings: for 0.5M CaCl2 % total: activity recovery; for Flow through IU: rFVIII activity in fraction; for Activity results % total: Table 9, 0.5M CaCl2 fraction
# Procedure: as §1, §2, §3
# Tables 7 and 8 list the sequences for which activity recovery was determined by a chromogenic substrate assay (COASTEST kit, diaPharma, Franklin, Ohio). Chromatographc conditions are the same as described above for the results from Tables 5 and 6. It can be
# [4] = Table 3, 14C-rFVIII 20 nM in PPF
# [5] = Table 3, 14C-rFVIII 20 nM in PPF, 3.0 × 10^15 DPM/mole
# [6] = Table 4, 14C-rFVIII 30 nM in PPF
# T1 sequence (P00451 20-2351): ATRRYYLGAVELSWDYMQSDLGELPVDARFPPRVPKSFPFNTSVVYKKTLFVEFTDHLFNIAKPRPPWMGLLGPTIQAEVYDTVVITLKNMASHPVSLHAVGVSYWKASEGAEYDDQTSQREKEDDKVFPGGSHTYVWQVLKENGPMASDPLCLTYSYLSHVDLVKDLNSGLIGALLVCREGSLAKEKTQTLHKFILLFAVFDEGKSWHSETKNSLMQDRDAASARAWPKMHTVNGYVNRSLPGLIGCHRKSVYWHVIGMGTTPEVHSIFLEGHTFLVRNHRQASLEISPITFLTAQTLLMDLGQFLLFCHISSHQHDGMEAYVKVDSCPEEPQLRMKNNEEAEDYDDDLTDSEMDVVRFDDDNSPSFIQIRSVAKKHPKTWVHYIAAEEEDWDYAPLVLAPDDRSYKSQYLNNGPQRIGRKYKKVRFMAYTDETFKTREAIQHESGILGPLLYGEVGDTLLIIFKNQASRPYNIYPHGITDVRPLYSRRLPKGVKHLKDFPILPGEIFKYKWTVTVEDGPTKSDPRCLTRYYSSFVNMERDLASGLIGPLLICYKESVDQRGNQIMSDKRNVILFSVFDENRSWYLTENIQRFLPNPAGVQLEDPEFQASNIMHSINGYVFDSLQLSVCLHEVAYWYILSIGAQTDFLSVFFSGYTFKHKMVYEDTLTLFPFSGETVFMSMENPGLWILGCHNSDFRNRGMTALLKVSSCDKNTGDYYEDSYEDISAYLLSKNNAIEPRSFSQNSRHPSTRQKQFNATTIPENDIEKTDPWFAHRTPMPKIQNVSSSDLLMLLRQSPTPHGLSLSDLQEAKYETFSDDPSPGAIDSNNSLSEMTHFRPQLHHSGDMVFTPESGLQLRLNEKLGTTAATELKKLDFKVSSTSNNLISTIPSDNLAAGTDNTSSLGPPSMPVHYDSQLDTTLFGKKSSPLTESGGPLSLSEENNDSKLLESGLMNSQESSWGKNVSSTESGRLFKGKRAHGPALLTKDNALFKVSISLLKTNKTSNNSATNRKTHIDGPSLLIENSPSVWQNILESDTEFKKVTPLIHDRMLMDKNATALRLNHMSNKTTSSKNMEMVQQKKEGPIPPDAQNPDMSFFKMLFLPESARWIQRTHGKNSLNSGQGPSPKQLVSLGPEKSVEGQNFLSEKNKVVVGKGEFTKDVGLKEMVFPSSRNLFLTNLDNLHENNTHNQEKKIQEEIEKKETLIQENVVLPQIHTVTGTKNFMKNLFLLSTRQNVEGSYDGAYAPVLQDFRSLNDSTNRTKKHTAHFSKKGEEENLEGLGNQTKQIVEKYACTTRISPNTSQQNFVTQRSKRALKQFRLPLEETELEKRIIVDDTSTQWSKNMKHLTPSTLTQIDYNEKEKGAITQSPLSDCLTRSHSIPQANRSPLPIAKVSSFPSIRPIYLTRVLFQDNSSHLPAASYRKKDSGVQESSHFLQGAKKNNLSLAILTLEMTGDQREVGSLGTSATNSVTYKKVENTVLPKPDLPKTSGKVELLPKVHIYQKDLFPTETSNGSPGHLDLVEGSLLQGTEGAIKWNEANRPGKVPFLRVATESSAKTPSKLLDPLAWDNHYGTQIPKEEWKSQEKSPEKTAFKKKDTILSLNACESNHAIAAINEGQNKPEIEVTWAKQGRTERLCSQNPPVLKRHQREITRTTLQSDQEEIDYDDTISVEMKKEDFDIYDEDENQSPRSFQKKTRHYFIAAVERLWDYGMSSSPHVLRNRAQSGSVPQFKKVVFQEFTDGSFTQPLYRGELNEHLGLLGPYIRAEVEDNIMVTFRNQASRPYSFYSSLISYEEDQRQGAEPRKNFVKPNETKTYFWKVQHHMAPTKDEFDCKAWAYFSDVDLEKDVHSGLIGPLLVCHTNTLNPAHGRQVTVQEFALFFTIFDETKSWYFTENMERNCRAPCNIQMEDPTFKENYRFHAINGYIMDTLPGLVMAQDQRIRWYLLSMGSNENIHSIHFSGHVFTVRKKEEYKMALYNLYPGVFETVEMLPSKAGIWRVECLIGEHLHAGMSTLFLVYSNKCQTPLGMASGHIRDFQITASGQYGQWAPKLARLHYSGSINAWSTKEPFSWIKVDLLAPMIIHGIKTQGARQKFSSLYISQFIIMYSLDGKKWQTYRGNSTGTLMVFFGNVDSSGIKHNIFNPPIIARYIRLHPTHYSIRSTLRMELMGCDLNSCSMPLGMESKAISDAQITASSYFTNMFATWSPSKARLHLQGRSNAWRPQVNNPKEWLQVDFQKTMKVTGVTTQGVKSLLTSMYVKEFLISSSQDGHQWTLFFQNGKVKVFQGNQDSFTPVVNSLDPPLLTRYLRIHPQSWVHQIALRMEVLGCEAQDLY
# T1 sequence (P00451 1668-2351 limits assumed): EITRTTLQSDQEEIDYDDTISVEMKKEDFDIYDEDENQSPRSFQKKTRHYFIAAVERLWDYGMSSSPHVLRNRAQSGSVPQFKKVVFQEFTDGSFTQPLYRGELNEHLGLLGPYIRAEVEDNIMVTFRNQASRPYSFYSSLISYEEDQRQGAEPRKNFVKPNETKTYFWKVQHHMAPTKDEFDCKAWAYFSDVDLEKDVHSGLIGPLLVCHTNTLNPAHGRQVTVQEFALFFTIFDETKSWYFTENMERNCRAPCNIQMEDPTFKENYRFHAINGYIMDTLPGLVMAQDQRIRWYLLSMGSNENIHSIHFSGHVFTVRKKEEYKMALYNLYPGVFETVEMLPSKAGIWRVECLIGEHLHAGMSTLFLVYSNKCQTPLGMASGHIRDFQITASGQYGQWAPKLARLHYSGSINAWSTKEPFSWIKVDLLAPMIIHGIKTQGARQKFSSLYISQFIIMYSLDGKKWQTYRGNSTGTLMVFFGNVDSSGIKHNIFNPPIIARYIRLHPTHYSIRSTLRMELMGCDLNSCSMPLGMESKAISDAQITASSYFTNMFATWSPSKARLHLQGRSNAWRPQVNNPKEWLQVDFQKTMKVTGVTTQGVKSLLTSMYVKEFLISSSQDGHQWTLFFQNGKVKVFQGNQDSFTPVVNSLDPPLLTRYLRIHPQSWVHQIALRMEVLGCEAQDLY
substance,measurement,setting,value
1 (KPNPLA) [compound 1],Total dpm,"[1]; Table 3, 14C-rFVIII 20 nM",3162 dpm
same,0.5M CaCl2 % total,[1]; [4],85%
same,2% acetic acid % total,[1]; [4],12%
same,2% acetic acid dpm,[1]; [4],368 dpm
same,0.5M CaCl2 dpm,[1]; [5],2694 dpm
same,beads % total,"[1]; Table 3, 14C-rFVIII 20 nM",3%
same,beads dpm,"[1]; Table 3, 14C-rFVIII 20 nM",99 dpm
same,0.5M CaCl2 ng,[2]; Table 5,4961 ng
same,0.5M CaCl2 % total,[2]; Table 5,88%
same,2% acetic acid % total,[2]; Table 5,1%
same,2% acetic acid ng,[2]; Table 5,61 ng
same,Flow through % total,[2]; Table 5,10%
same,Total ng,[2]; Table 5,5651 ng
same,Flow through ng,[2]; Table 5,583 ng
same,ELISA results % total,[2],88%
same,0.5M CaCl2 IU,[3]; Table 7,32.8 IU
same,2% acetic acid % total,[3]; Table 7,2%
same,2% acetic acid IU,[3]; Table 7,0.58 IU
same,Flow through % total,[3]; Table 7,0%
same,Total IU,[3]; Table 7,36.5 IU
same,0.5M CaCl2 % total,[3]; Table 7,90%
same,Flow through IU,[3]; Table 7,0.03 IU
same,Activity results % total,[3],90%
13 (KAQETW) [compound 13],Total dpm,"[1]; Table 4, 14C-rFVIII 30 nM",4096 dpm
same,0.5M CaCl2 % total,[1]; [6],95%
same,2% acetic acid % total,[1]; [6],3%
same,2% acetic acid dpm,[1]; [6],135 dpm
same,0.5M CaCl2 dpm,"[1]; Table 4, 14C-rFVIII 30 nM in PPF, 5.0 × 10^15 dpm/mole",3884 dpm
same,beads % total,"[1]; Table 4, 14C-rFVIII 30 nM",2%
same,beads dpm,"[1]; Table 4, 14C-rFVIII 30 nM",77 dpm
same,0.5M CaCl2 ng,[2]; Table 6,8018 ng
same,0.5M CaCl2 % total,[2]; Table 6,90%
same,2% acetic acid % total,[2]; Table 6,1%
same,2% acetic acid ng,[2]; Table 6,87 ng
same,Flow through % total,[2]; Table 6,7%
same,Total ng,[2]; Table 6,8863 ng
same,Flow through ng,[2]; Table 6,641 ng
same,ELISA results % total,[2],90%
same,0.5M CaCl2 IU,[3]; Table 8,48.3 IU
same,2% acetic acid % total,[3]; Table 8,0%
same,2% acetic acid IU,[3]; Table 8,0.09 IU
same,Flow through % total,[3]; Table 8,2%
same,Total IU,[3]; Table 8,50.3 IU
same,0.5M CaCl2 % total,[3]; Table 8,96%
same,Flow through IU,[3]; Table 8,0.8 IU
same,Activity results % total,[3],96%
6 (HYWFYK) [compound 6],Total dpm,"[1]; Table 3, 14C-rFVIII 20 nM",3881 dpm
same,0.5M CaCl2 % total,[1]; [4],83%
same,2% acetic acid % total,[1]; [4],12%
same,2% acetic acid dpm,[1]; [4],458 dpm
same,0.5M CaCl2 dpm,[1]; [5],3236 dpm
same,beads % total,"[1]; Table 3, 14C-rFVIII 20 nM",5%
same,beads dpm,"[1]; Table 3, 14C-rFVIII 20 nM",187 dpm
same,0.5M CaCl2 ng,[2]; Table 5,5658 ng
same,0.5M CaCl2 % total,[2]; Table 5,90%
same,2% acetic acid % total,[2]; Table 5,3%
same,2% acetic acid ng,[2]; Table 5,160 ng
same,Flow through % total,[2]; Table 5,2%
same,Total ng,[2]; Table 5,6320 ng
same,Flow through ng,[2]; Table 5,105 ng
same,ELISA results % total,[2],90%
same,0.5M CaCl2 IU,[3]; Table 7,59.4 IU
same,2% acetic acid % total,[3]; Table 7,1%
same,2% acetic acid IU,[3]; Table 7,0.5 IU
same,Flow through % total,[3]; Table 7,0%
same,Total IU,[3]; Table 7,68.7 IU
same,0.5M CaCl2 % total,[3]; Table 7,86%
same,Flow through IU,[3]; Table 7,0.0 IU
same,Activity results % total,[3],86%
